In patent publication US20180327499A1 (INSERM INSTITUT NATIONAL DE LA SANT ET DE LA RECHERCHE M …, published 2018):

Columns and labels:
[1] = target: T1, NKG2D on HEK-293T cells co-transfected with NKG2D and DAP10 (UniProt P26718 1-216, limits assumed); assay: flow cytometry on NKG2D/DAP10-transfected HEK-293 cells, one site total binding fit
T1 construct: whole, on cells; DAP10 is co-expressed for surface expression; also called NKG2D-DAP10 co-transfected HEK293T cells
T1 sequence (looked up): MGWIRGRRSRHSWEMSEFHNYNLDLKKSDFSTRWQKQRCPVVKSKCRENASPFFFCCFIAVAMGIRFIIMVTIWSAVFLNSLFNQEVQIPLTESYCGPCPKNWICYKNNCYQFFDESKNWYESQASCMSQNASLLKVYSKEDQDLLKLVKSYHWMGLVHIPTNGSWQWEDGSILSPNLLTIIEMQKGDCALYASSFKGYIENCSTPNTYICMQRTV

[2] = target: T2, recombinant human NKG2D/Fc chimera (R&D Systems) (human, UniProt P26718 78-216); assay: ELISA on plate coated with Fc-NKG2D, dose-response, one site total binding fit
T2 construct: Bought reagent; The order Fc then NKG2D follows the printed name 'Fc-NKG2D'; also called Fc-NKG2D; NKGD2-Fc human; Fc part of the bought chimera not given
T2 sequence (looked up): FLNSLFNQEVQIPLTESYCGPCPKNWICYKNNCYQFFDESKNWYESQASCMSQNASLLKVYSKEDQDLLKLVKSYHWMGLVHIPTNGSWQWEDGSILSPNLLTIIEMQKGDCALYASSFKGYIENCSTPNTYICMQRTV

Kd [1]: 625 nM | EC50 [2]: 44 nM
B1: sdAb ET2F9 (VHH)
VHH: QVQLVQSGGGLVQPGGSLRLSCAASGFTFDDYAMSWVRQAPGKGLEWVSAISWSGRTTYYAESMKGRFTTSRDNAKNTLYLQMNSLKPEDTALYYCARGDVAIRGNLDAWGQGTQVTVSS
notes: It carries a 6His tag (detected with anti-6His / anti-his antibodies); also called ET2F09; sdAb F9
